For test [1], the target named is T1, GST-Fyn-SH3-SH2 (fluorescein on the N-terminus; phosphotyrosine (pY) at position 7 of the printed letters). The experiment in a line: high-speed capillary electrophoresis.
For test [2], the target named is T1, GST-Fyn-SH3-SH2. Description: fluorescence polarisation. Background: Fluorescence polarisation rises when a labelled molecule tumbles more slowly, as on binding a larger partner.
In test [3] the target is T1, GST-Fyn-SH3-SH2. Description: high-speed capillary electrophoresis. This is another data set of the same source.

Where “and” joins values, the source holds several entries; their conditions need not be identical. Identical values can stand only once. Square brackets hold non-standard residues; d marks the D form. Ends that are not written are not given here. pY = N[C@@H](Cc1ccc(OP(=O)(O)O)cc1)C(=O)O

Usually stoichiometry N stands for a count of units in the complex or per binding partner. Take fluorescein-EEEEPQ[pY]EEIPIYL [Fluor-Fyn peptide (fluorescein-EEEEPQpYEEIPIYL)]: the “stoichiometry N” value in the test with GST-Fyn-SH3-SH2 [1] is 0.5 peptide per protein (printed 2:1 protein: peptide, complex 1) and 1 peptide per protein (printed 2:2 protein: peptide, complex 2). In addition, in the test with GST-Fyn-SH3-SH2 [2], the “t1/2, two component decay, first component” value worked out at 3.3 s; the “t1/2, two component decay, second component” value was determined as 59.5 s; the “t1/2 of the complex, single exponential decay” value was found to be 21.2 ± 1.3 s. For the same molecule, in the test with GST-Fyn-SH3-SH2 [3], the “t1/2 of complex 1” value was found to be 22 s and the “t1/2 of complex 2” value was determined as 58.8 s.

The record behind these values is paper PMC2763920 (Electrophoresis, 2009).
